The values that follow come from the DeepSol protein solubility set.

The nature of the data set: soluble on expression in E. coli; label from the status in PepcDB or PDB records.
As to “MSLMELQGKFLIAMPHLDDYFNRTVVFMCEHNEQGSMGLVINQPTDLSIAELYSKLNFMMKNDRTFGNEMVVAGGPMHTERGFILHKNTLNAFQHTYKVTKELSMTTSADVVETLGSTFAPEKYLVALGCSSWGAGQLEKEIRDNAWLVVSSNDQILFDMPYEDRYAAANQLLGIHPYNFALAQVGHSEGGSHHHHHH”, the “soluble on expression in E. coli” value is “soluble”.
“MSLMLYFITFREARVLLKSRDLALINVDLMKTGKKIRVRVSKDYVEFPDGSRVKKEIIKRIAEDEGNVYFVRDGEVFKAAIAGEHFYKLVPTIPPTIEINGIRMHRTKGTDPLKDTIAKVNTVKPREGEVVLDTCMGLGYTAIESAKRGARVITIEKDPNVIELAKINPWSRELFESPKIKILQGDSFDLIKKFEDESFDVIIHDPPRFSLAGELYSEEFYMEMFRVLKPGGRLFHYVGNPGKRYRGLDLQKGVMERLRRVGFMKVRRVQEALGVFALKPSLEEGHHHHHH”: the “soluble on expression in E. coli” value is “not soluble”.
As to “MSLMTSKTSLALLCDFYEFTMSQGYFKNNKKDQICYFDIFFRKIPDSGSFAIFAGLEDILDFVENLSFDAEDIEFLRKQGIFDTEFLDFLANFKFKGEIYAMREGEVIFPNEPLLCIKATTIEAQLLETFLLLSLNHQSLIATKTNRIVRAAKDSKILEFGSRRAQGSEAALKGARAAFIGGCIGSACTLAGKIYNIPINGTMAHSWVQMFENELEAFKAYVKIYPKNPVFLIDTYDCLNSGLKNAIKVFKEFGIQEGGVRIDSGNLLELSLKIRQELDQAGLQKCKIIVSNALDEWSIKKLKEQNAPIDIFGVGERLITASSDPIFSCVYKLAALEDQGIKPKIKISENNEKSTLPHFKKLFRVYDKNTQKILFDELYVFDENPNQDENLERKELLELVYKEKRLLKKSSLNTIQDYTKEQISKLDESFLDLDRFVKFEVKLSPKLQNITEDLLKTRFEGHHHHHH”, the “soluble on expression in E. coli” value is given as “soluble”.
Consider “MSLNDILNEFIDKYFPLSNEPLLPDFKDLNYPENLPTLVIDLNYVIAKLEYDRKTGWRVLKRPYADRFFKELSSFYEIVIWSDDNFPVAQEVISKWGIPAIGCLHRDQCSKKKKSYVKDLKRLGRNLDRVVIIDHDAKAFMLQPENGILIKEFHGDLNDKEMLCLIDLLKSFAISTHDISQFLKKHGGGDYNIGKRYLQQKEGHHHHHH”, for which the “soluble on expression in E. coli” value was “soluble”.
For the sequence “MSLNGATQGLLGWSSRGEIAAEIADAKQSQSVYVDKIANSSLAEIQADPTLMQFALSGGAAAFKVNCIQCHGSGAEGGQGYPNLNDDDWMWGGSVDDIYTTVKHGIRFADDADTRASEMPAFGDILKSDEIRAVAAYVVSLTGTPSNPALVEPGKQLFADNCASCHGEDAKGNREFGAPNLADAIWLKAHGEEGIVAQIRSPKHGVMPAWGERLGDTTVKQLAIFVHSLGGGEGHHHHHH”, the “soluble on expression in E. coli” value is “not soluble”.
Regarding “MSLNGITKYVEKLTFFNIQSGKQVEFNRDEKVILSNVPFIQQLPELDRGCEVTSLAMMLQYAGITVDKMKLANEIKKVDFMNDGVRGNPNEGFVGNIYTFSESGYGVYHGPLFQLAKKYLPNKAVDLTGKSIEELYKSVKAGQPVVIITNATFAPLDEDEFTTWETNNGDVSITYNEHCVVLIGYDQESVYIRDPLKDSLDVKVPREKFEQAWVQMGSQAISYVKRSKEGHHHHHH”, the “soluble on expression in E. coli” value is “soluble”.
For “MSLNGPLKIGYYKIGAAYRDGKGYDVDMVRELARRLGCPIANETELPRLRALKMLETGQIDVSASTLATPDRLQYAWIYQYNHAKNMVLLNPAIQARTLATLLEDPALRWGAIRGYHHGPSQDKLLEELNARHKVVIANDEDDLYKMLGNGVVTAVFAQPFSYGRWLRELPNPNQIVVLDLYPETDMVASGLALSKARFSREAAEKWHQELLKMYQDGSLYDIMRRYLNESAARQMMQKPIEEGHHHHHH”, the “soluble on expression in E. coli” value is “soluble”.
The result for “MSLNHSVRKCGYLRKQKHGHKRFFVLRGPGAGGDEATAGGGSAPQPPRLEYYESEKKWRSKAGAPKRVIALDCCLNINKRADAKHKYLIALYTKDEYFAVAAENEQEQEGWYRALTDLVSEGRAAAGDAPPAAAPAASCSASLPGALGGSAGAAGAEDSYGLVAPATAAYREVWQVNLKPKGLGQSKNLTGVYRLCLSARTIGFVKLNCEQPSVTLQLMNIRRCGHSDSFFFIEVGRSAVTGPGELWMQADDSVVAQNIHETILEAMKALKELFEFRPREGHHHHHH” reads “soluble”; that for “MSLNKEQLKSLVIKTIDENREKILKIGQGIYKNPEYGYKEFKTTEAVSNFFEQELNLSVEKNIAVTGCKADANSSKKGPHISILGELDGISCKEHKDANEIGASHTCGHNIQIAGMLGAAVGLVKSGVLEHLDGKVSFMATPAEEFIELEYREQLKKEGKITYFGGKQELIKRGYFDDIDISMMFHASDLGEDKALVGPESNGFVGKKVKFIGKESHAGSAPHDGINALNAAMLAINNVNALRETFKESERVRFHPIITKGGDIVNVVPADVHMESYVRARTINGMIDANERINKALMAGGMAVGADVEITEIPGYLPILRYKSLDNLFKNNLEDLGLKGKVIDGGDFTGSFDFGDVSHIMPTLHPMIGGVKGALHTRDFEIVDEDLAYIIPAKAMALTVVDLLFDNAKDAKDILDTFTPVMTKKEYLTFLEKHDKTEGHHHHHH”, “soluble”; that for “MSLNKKLYIGMVGILSLMMVGCNKSLAKVNDVEITKEQYKKTKAVLSATNNYINGQSLDELEKTLDKKGRNKLENVIISFMVDNELLYQEAKDKGLTPSKSEVDSKYQELEDKMNLNTSYKEKMDKAGVDKDYLKQEISRDLAIDKNKKAFEDRINISDNDMEAYYTSHKKDFNVEEVSASQILISTLDKNKKEVSKDKKEALKKKADNILTKIKNGESFESLAKKYSDDKATGKNGGQLGYFTKDDKNAEFTKEVFKLKKNEVSNVFETSYGYHIVKVTDKRERQKSFNECQSLIRESILNEKYIEHIKKLNEDAKIDREGHHHHHH”, “soluble”.
For the sequence “MSLNLDYTTYRIICSHPFGISRSTHTYYDIVYIYISDGEYIGRGEAAPSVRYDESTNQIITHLKSIDNIDNNLNLEEGAFWCKKNSNGISSLEAALSTAWLDLWTKKNNRRISTYFNSGKNMLYTSFTIAIGDLDLIPKKIEEAKSYNILKIKLGINEQHDKNIIKLIRKETDKIIRVDANEGWDLDTGKKMCKWLADHNVEFVEQPFKAQNLGDTAKLRDVSPLPLIADENSIKSSNIPDIAHAFDGINIKLMKCGSLFEAKKMIDLARKYDMKIMLGCMVESSIGITAMSNLSPQVDFADLDGNLLIDNDPYIGVKVVDGKLKLPSGDGLGLTLNQKYRKDFGNLKEGHHHHHH”, the “soluble on expression in E. coli” value was “soluble”.
As to “MSLNLLALPLRSEVELADARTRARHIAELLGLGNQDQVRVATVVSELARNVLLYAGSGQVTFSVRDEAGRSTLLIEVRDQGPGLGHLDEVLGGQYRSKTGMGVGLTGTRRLMDEFDIQTAPGKGTVVRVGKHLPAVVGDAEQRRVAEVLGSSGPRDLLTALSVQNRDLLETLAALNEREERLQVLNQELQDTNRGVVALYAELEEKAERLREANGLKTTFLSYMSHELRTPLHSMLGLARILSGQLDGPLNPEQLKQVQLLQGAAGDLLEMVNGLLDLAKMEAGKTDVDVTTFEVRELFGTLRALFLPLLDNPAVNLIFEDAAGFPPLTTDQRKVEQVLRNFIANALKFTAAGEVRVTAQLLPSGDRVRFTVQDTGIGLSDEEQAQLFQDFSQVGRPGRPAGTGLGLSIARKFTELLGGRVGVQSAPGAGAEFSAELPVVYPGVGAAKRPRALLIDDSEADRYVLTTLLTRAGYEVDEVAYAEPGLEQARSGAYDAVVLDLNLPDRSGLDVLRALRENAGTRSLPVLVVIAAALDAAERAALETLGASVHLKEALYQDEQVLFASLPSGSVHYGEAEGHHHHHH”, the “soluble on expression in E. coli” value was “soluble”.
Consider “MSLNLLFTGASGFLGYNVLPLLKKKYSVETIGLTSQDDYIVNLAAEIPKLAGKYDVILHVAGKAHSLPKTEAEKRLFFDVNLQGTKNLCTALEQSGIPKSFIFISTVAVYGCDSGENITEEYPLNGTTPYALSKIKAEKYLEEWCAMHNVKLSILRPSLIAGPNPPGNLGAMIHGIKSGKYLSIAGGKAQKSVLMVQDIANLVPLLIEKGGIYNVCDSYQPSFRELEMVICKQLNKKLPLSIPYWFAKSMAVFGDCFGEKAPINSLKLRKITHSLTFSNEKAMRELGWKPMNVLKNFREGHHHHHH”, for which the “soluble on expression in E. coli” value is “soluble”.
“MSLNLVSKLEETASEKPDSIACRFKDHMMTYQELNEYIQRFADGLQEAGMEKGDHLALLLGNSPDFIIAFFGALKAGIVVVPINPLYTPTEIGYMLTNGDVKAIVGVSQLLPLYESMHESLPKVELVILCQTGEAEPEAADPEVRMKMTTFAKILRPTSAAKQNQEPVPDDTAVILYTSGTTGKPKGAMLTHQNLYSNANDVAGYLGMDERDNVVCALPMFHVFCLTVCMNAPLMSGATVLIEPQFSPASVFKLVKQQQATIFAGVPTMYNYLFQHENGKKDDFSSIRLCISGGASMPVALLTAFEEKFGVTILEGYGLSEASPVTCFNPFDRGRKPGSIGTSILHVENKVVDPLGRELPAHQVGELIVKGPNVMKGYYKMPMETEHALKDGWLYTGDLARRDEDGYFYIVDRKKDMIIVGGYNVYPREVEEVLYSHPDVKEAVVIGVPDPQSGEAVKGYVVPKRSGVTEEDIMQHCEKHLAKYKRPAAITFLDDIPKNATGKMLRRALRDILPQGHHHHHH”: the “soluble on expression in E. coli” value is on record as “soluble”.
The result for “MSLNPKKYNGDHLDEKSREIMLKTIEFFENMGKAKLKEKASKREWYADFLEFIKENKIFYTLMTPPEYADGDPNVRWDTWRICDFSELLAFYSLDYWYTWQVTVLGLGPIWMSKNEKIKKEVAELLKNGAVFAFGLSEREHGADIYATETKLVPQPDGTYKAYGRKYYIGNSNVAAIISTFARIADPDGSLPDKPDKSRFAFFALRRDEKYYELIKNIVDAQMFVGDFLIHDYPVTEDDILEKGEEAWDAALNTVNVGKFNLGWASIGICTHAFYEAINHASKRRLYGMYVTDFPHIKRLFVDAYARLMAMKLFARRACDYMRVASREDRRYLLYSAMVKSKVTREGEEVINLLWDVIAAKGFEKDTYFEMAARHIRALPKLEGTVHVNMALILKFLPKYLFEPAEFPEVPKMDVPKHDEFLFNQGPSGGLSQVRFHDYQKVYDSFDFPNINVFKEQIATFKEMCMAAPPSPEQMRDFDFMVTWGEMFALLVYGHLILEAAKIYDVDKDLLEEIFDFMIRDFSKFAVELMAKPSATDKQIEYAKKMIKRPVPDKERFERVVKKVYSYADAYEMNEGHHHHHH” reads “not soluble”.
For “MSLNPRPGKVVIYSEPDVSEKCIEVFSDIQDCSSWSLSPVILIKVVRGCWILYEQPNFEGHSIPLEEGELELSGLWGIEDILERHEEAESDKPVVIGSIRHVVQDYRVSHIDLFTEPEGLGILSSYFDDTEEMQGFGVMQKTCSMKVHWGTWLIYEEPGFQGVPFILEPGEYPDLSFWDTEAAYIGSMRPLKMGGRKVEFPTDPKVVVYEKPFFEGKCVELETGMCSFVMEGGETEEATGDDHLPFTSVGSMKVLRGIWVAYEKPGFTGHQYLLEEGEYRDWKAWGGYNGELQSLRPILGDFSNAHMIMYSEKNFGSKGSSIDVLGIVANLKETGYGVKTQSINVLSGVWVAYENPDFTGEQYILDKGFYTSFEDWGGKNCKISSVQPICLDSFTGPRRRNQIHLFSEPQFQGHSQSFEETTSQIDDSFSTKSCRVSGGSWVVYDGENFTGNQYVLEEGHYPCLSAMGCPPGATFKSLRFIDVEFSEPTIILFEREDFKGKKIELNAETVNLRSLGFNTQIRSVQVIGGIWVTYEYGSYRGRQFLLSPAEVPNWYEFSGCRQIGSLRPFVQKRIYFRLRNKATGLFMSTNGNLEDLKLLRIQVMEDVGADDQIWIYQEGCIKCRIAEDCCLTIVGSLVTSGSKLGLALDQNADSQFWSLKSDGRIYSKLKPNLVLDIKGGTQYDQNHIILNTVSKEKFTQVWEAMVLYTEGHHHHHH”, the “soluble on expression in E. coli” value is “not soluble”.
